Experimental findings from publication PMC9073327 are described below.

Data set [1] deals with T1, WRKY10:MYC (Arabidopsis thaliana (Col), UniProt Q9LG05 1-485). The experiment in a line: EMSA. A general note: Mobility shift assays separate free from complexed probe on a gel.
For data set [2], the target named is T2, WRKY2:HIS (Arabidopsis thaliana (Col), UniProt Q9FG77 1-687). In words: EMSA.
A further data set deals with LHY:MBP;WRKY10:MYC (Arabidopsis thaliana;Arabidopsis …, UniProt Q6R0H1;Q9LG05 1-645;1-485, |). The experiment in a line: EMSA.
LHY:MBP;WRKY10:MYC, sequence (Q9LG05 whole entry, one chain of several): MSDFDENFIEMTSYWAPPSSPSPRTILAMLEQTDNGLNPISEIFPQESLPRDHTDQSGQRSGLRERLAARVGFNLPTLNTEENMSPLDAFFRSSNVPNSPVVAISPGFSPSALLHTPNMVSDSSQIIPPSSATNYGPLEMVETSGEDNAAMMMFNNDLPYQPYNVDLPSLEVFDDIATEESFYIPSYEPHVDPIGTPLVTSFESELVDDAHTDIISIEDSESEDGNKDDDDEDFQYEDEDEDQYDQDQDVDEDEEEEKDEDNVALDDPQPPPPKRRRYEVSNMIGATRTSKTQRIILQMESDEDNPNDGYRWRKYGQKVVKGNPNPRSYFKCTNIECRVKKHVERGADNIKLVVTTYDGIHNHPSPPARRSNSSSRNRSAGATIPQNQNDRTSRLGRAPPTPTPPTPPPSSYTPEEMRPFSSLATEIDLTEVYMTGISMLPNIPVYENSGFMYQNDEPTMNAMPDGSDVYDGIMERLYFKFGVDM
For a further data set, the target named is LHY:MBP;WRKY2:HIS (Arabidopsis thaliana;Arabidopsis …, UniProt Q6R0H1;Q9FG77 1-645;1-687, |). The experiment in a line: EMSA.
LHY:MBP;WRKY2:HIS, sequence (Q9FG77 whole entry, one chain of several): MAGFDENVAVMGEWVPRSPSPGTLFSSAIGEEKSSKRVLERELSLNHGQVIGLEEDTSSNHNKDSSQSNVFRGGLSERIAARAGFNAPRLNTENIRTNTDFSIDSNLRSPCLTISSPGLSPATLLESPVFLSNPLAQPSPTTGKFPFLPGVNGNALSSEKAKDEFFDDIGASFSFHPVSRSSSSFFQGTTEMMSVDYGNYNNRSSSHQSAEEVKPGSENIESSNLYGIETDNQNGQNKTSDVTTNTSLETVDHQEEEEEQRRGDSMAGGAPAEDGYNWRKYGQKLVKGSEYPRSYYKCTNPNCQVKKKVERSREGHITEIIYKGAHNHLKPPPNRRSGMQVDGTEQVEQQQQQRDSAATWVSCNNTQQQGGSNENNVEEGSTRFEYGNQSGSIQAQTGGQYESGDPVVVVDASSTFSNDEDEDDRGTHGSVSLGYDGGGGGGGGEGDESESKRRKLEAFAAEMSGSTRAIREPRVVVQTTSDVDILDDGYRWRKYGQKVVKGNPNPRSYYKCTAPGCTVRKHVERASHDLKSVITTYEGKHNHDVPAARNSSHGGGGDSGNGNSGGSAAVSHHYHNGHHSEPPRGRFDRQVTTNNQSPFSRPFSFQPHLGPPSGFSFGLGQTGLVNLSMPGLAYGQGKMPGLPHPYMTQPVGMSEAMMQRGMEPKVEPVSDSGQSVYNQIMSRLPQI
Data set [3] has as its target T3, CCA1:MBP (Arabidopsis thaliana, UniProt P92973 1-608). In words: EMSA.
In data set [4] the target is T4, LHY:MBP (Arabidopsis thaliana, UniProt Q6R0H1 1-645).
T4 sequence: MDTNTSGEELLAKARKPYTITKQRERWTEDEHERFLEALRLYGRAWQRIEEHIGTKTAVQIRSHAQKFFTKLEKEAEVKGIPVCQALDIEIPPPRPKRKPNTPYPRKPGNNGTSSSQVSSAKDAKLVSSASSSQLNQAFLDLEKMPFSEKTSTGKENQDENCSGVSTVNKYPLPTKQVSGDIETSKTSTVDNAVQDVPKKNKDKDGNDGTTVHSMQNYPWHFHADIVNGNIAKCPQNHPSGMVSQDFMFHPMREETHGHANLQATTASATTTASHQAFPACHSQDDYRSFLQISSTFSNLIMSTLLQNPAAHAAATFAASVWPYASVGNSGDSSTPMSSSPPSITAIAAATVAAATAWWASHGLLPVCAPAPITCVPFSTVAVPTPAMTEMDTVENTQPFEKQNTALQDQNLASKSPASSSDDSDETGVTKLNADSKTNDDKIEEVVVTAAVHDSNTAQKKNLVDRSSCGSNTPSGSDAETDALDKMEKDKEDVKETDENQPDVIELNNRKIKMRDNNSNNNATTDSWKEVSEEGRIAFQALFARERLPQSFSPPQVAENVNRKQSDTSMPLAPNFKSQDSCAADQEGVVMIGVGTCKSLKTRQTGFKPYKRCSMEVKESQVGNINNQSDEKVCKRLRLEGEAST
In words: EMSA.

Data set [5] concerns the target T3, CCA1:MBP. In words: competition.
The target in data set [6] is T4, LHY:MBP. The experiment in a line: competition.
Data set [7] addresses T1, WRKY10:MYC. In words: competition.
In data set [8] the target is T2, WRKY2:HIS. The experiment in a line: competition.

T2 sequence (Q9FG77 whole entry): as the sequence (Q9FG77 whole entry, one chain of several) above
T3 sequence (P92973 whole entry): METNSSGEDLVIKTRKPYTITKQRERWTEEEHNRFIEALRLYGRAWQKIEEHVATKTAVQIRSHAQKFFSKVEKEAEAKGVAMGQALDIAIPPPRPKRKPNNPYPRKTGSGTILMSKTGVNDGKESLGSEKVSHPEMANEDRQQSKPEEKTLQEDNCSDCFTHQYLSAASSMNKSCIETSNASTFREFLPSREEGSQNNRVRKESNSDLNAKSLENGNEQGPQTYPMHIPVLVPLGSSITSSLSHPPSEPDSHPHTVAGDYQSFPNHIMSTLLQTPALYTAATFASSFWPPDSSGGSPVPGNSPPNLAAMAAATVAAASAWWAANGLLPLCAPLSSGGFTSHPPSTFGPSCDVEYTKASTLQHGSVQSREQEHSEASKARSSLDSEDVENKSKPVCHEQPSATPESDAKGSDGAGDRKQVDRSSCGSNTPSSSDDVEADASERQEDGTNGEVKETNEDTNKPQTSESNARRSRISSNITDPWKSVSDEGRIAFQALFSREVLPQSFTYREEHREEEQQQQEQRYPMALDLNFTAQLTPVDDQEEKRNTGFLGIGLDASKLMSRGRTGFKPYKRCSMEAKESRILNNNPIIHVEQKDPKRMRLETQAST
T1 sequence (Q9LG05 whole entry): as the sequence (Q9LG05 whole entry, one chain of several) above

B1: PIF4 W1-box probe (4W1) (dsDNA)
DNA 1: CTATAGATGATTGTGATTTGACAAAAACACCCTCAAATCA
DNA 2: TGATTTGAGGGTGTTTTTGTCAAATCACAATCATCTATAG
For the molecule B1, the binding result in the data set with WRKY10:MYC [1] and with WRKY2:HIS [2] was “binds” each time.

B2: PIF4 M1-box probe (4M1) (dsDNA)
DNA 1: ATCTCCCTCGCTGTAATATCTTTATGCTCCTGTCACT
DNA 2: AGTGACAGGAGCATAAAGATATTACAGCGAGGGAGAT
Regarding B2, the binding result with LHY:MBP;WRKY10:MYC, with LHY:MBP;WRKY2:HIS, with CCA1:MBP [3] and with LHY:MBP [4] was “binds” throughout.

B3: PIF4 M1-box mutant competitor (4M1 mut) (dsDNA)
DNA 1: ATCTCCCTCGCTGTAATTGCTTTATGCTCCTGTCACT
DNA 2: AGTGACAGGAGCATAAAGCAATTACAGCGAGGGAGAT
In the case of B3, the binding result with CCA1:MBP [5] and with LHY:MBP [6] was “no binding” each time.

B4: PIF4 W1-box mutant competitor (4W1 mut) (dsDNA)
DNA 1: CTATAGATGATTGTGATGGTGTGAAAACACCCTCAAATCA
DNA 2: TGATTTGAGGGTGTTTTCACACCATCACAATCATCTATAG
As to B4, the binding result with WRKY10:MYC [7] and with WRKY2:HIS [8] was “no binding” in each case.
